Data on one substance can be found in patent US6075125.

This experiment deals with BFIV21FLAG: BFIV21 with the FLAG epitope on the amino terminal end, expressed on RP9 cells (chicken). In words: indirect immunofluorescence, flow cytometry on RP9-BFIV21FLAG cells (RP9-BFIV21: 21; RP9: 20).

“FLAG-specific monoclonal antibody M2 (Kodak-IBI) (tool reagent)” had a log fluorescent mean channel number (mean log fluorescent channel number) of 191.
